Data on 1 molecule can be found in article PMC6662822, “Rational drug-design approach supported with thermodynamic studies — a peptide leader for the efficient bi-substrate inhibitor of protein kinase CK2” (Scientific Reports, 2019).

Where no end group is shown, it is not given here. 7‑COOH‑Br3Bt = not defined here

The assay has as its target catalytic subunit of human protein kinase CK2 (human) (UniProt P68400).

Chain of catalytic subunit of human protein kinase CK2 (human) (P68400 whole entry): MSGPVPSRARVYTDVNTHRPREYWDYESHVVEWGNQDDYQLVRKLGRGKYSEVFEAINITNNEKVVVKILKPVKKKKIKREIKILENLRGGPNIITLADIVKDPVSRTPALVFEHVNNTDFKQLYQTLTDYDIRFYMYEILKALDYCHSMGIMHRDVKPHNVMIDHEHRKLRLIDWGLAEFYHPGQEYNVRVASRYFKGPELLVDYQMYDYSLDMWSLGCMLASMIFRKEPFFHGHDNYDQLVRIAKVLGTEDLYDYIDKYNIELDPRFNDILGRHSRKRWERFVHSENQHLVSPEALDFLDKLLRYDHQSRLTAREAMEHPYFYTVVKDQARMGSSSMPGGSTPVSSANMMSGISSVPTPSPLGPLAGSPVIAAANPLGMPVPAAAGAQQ

B1: bi-substrate inhibitor (KESEEE-NH2 conjugated with 7-COOH-Br3Bt) (peptide)
peptide: K(7‑COOH‑Br3Bt)ESEEE-NH2
modifications: reading uncertain
Molecule B1 returned an IC50 of inhibition of hCK2α kinase activity (ADP-Glo assay; 10 μM substrate peptide …, 10 μM ATP, 30 °C) of 670 nM.
